Experimental data: patent publication US20120277180A1, “Cofactors and Methods for Use for Individuals” (VITAPATH GENETICS, INC, priority 2009, published 2012)

Legend:
[1] = target: T1, human MTHFR (Homo sapiens, UniProt P42898, A222V); assay: Cell-free MTHFR enzyme activity assay in crude yeast extract; type: biochemical; set-up: expressed in transfected cells; details: cells grown at 50 ug/ml folinic acid
[2] = target: T1, human MTHFR; assay: In vivo yeast complementation growth assay: MTHFR alleles in fol3 met13 haploid yeast, growth without methionine with titrated folinic acid; type: cell-based; set-up: expressed in transfected cells; host or cells: Saccharomyces cerevisiae fol3Δ::KanMX met13Δ::KanMX (S288c background), GAL1 promoter; details: 50 p g/ml folate supplementation

A222V: common functionally impaired human MTHFR variant, catalytic domain substitution A222V
Drop in enzyme activity in cell-free assays [1]: 50%
Reduction in growth rate [2]: 50%
